Assay results from patent US9717715B2, “Method of combination therapy using an anti-C-Met antibody” (Samsung Electronics Co., Ltd., priority 2013, dated 2017).

Tests used:
c-Met in MKN45 cells = target: T1, c-Met in MKN45 cells (Homo sapiens, UniProt P08581); assay: Degree of degradation of c-Met (total c-Met ELISA); assay type: cell-based; details: 5 ug/ml, 24 hours, FIG. 9B
T1 construct: MKN45 gastric cancer cells on which c-Met is expressed; endogenous in cells; host or cells: MKN45 gastric cancer cells (JCRB)
T1 sequence (P08581 25-1390): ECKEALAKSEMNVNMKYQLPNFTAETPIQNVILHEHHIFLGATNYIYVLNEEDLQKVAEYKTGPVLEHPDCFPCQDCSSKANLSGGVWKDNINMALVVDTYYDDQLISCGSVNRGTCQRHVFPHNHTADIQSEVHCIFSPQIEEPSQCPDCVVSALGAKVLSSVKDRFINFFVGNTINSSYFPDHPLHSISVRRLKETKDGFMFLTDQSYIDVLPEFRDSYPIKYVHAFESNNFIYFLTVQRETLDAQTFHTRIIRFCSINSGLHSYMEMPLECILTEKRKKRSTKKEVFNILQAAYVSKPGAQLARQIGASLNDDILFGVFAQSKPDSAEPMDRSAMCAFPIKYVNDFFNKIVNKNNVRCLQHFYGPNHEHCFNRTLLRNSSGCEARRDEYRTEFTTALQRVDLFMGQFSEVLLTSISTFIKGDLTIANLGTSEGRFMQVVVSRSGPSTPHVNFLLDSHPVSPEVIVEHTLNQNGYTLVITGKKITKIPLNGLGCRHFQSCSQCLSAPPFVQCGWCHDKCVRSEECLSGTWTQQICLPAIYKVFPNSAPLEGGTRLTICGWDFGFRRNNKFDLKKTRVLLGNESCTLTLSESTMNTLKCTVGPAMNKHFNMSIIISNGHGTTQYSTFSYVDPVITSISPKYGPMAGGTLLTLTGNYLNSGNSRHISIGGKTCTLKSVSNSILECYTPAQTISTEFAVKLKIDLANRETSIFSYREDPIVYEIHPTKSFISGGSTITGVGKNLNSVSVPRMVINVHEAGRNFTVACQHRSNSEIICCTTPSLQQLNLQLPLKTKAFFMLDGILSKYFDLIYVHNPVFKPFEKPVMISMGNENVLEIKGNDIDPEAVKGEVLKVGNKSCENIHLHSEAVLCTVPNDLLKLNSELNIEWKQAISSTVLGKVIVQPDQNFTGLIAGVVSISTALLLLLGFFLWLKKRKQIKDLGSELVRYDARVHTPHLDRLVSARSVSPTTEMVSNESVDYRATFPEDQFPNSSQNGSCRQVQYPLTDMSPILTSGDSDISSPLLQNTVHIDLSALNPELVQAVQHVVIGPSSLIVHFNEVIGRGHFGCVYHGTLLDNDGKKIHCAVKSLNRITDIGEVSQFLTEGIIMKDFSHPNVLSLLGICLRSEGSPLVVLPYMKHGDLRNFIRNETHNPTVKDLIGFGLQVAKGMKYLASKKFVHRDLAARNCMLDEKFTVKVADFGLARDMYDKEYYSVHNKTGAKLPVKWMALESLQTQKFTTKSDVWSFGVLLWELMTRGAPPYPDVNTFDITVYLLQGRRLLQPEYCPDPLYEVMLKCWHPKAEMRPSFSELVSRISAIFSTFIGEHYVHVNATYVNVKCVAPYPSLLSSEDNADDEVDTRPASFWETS
Procedure: In order to identify anti-cancer effects of the 4 types of antibodies having improved affinities, as prepared in Example 5, the degree of degradation of c-Met bound to the antibodies was evaluated. A relative total amount of c-Met was obtained by measuring the change in the total amount of c-Met after the antibody binds to c-Met to degrade c-Met via internalization, and thus the efficacy of the antibody was evaluated.
(§1) MKN45 cells (2×10^5 cells/ml) and each of the antibodies (5 ug/ml) were simultaneously introduced to a 96-well plate and incubated for 24 hours. Then, lysis of the cells treated with antibodies was performed and the change in the total amount of c-Met was measured using a Human total HGF R/c-Met ELISA KIT (R&D systems, DYC358) and analyzed.
as §1, with “In order to identify anti-cancer effects of the 3 types of antibodies having improved affinities, as prepared in Example 11, the degree of degradation of c-Met bound to the antibody was evaluated. MKN45” for “MKN45”, “and a” for “and the”, “change of” for “change in”

[1] = tested on: Akt phosphorylation in Caki-1 cells; assay: Akt phosphorylation (phospho-AKT1 Ser473 sandwich ELISA); assay type: cell-based; details: 5 ug/ml, FIG. 8B
Excerpt: Cellular processes regulated by Akt include cell proliferation, cell survival, cell size control, and response to nutrient availability, intermediary metabolism, angiogenesis, and tissue invasion. All these processes represent characteristics of cancer and many oncoproteins and tumor suppressors intersect in the Akt pathway, finely regulating cellular functions at the interface of signal transduction and classical metabolic regulation. Thus, as the content of phosphorylated Akt that is an active form increases, the activity of cancer cells increases. Here, the degree of inhibiting Akt phosphorylation by the 4 types of antibodies having improved affinities was evaluated.
To compare agonism of the 4 types of antibodies having improved affinities, as prepared in Example 5, Caki-1 cells (Korean Cell Line Bank) were used to confirm the degree of Akt phosphorylation. Mouse IgG was used as a negative control, and antibody 5D5 (a known agonist) was used as a positive control.
2×10^5 cells/ml of Caki-1 cells were introduced to a 96-well plate, and after 24 hours, each of 5 ug/ml of the antibodies was treated in serum free medium for 30 minutes. Lysis of the cells treated with the antibodies was performed and the degree of Akt phosphorylation was measured using a PathScan phospho-AKT1 (Ser473) chemiluminescent Sandwich ELISA kit (Cell Signaling, cat. no #7134S). […]

B1: L3-11Y: light chain SEQ ID NO: 73 (serine 27e replaced with tryptophan) and the heavy chain of huAbF46-H4-A1 (IgG2 Fc) (antibody)
heavy: EVQLVESGGGLVQPGGSLRLSCAASGFTFTDYYMSWVRQAPGKGLEWLGFIRNKANGYTTEYSASVKGRFTISRDNSKNTLYLQMNSLRAEDTAVYYCARDNWFAYWGQGTLVTVSSASTKGPSVFPLAPCSRSTSESTAALGCLVKDYFPEPVTVSWNSGALTSGVHTFPAVLQSSGLYSLSSVVTVPSSNFGTQTYTCNVDHKPSNTKVDKTVERKCCVECPPCPAPPVAGPSVFLFPPKPKDTLMISRTPEVTCVVVDVSHEDPEVQFNWYVDGVEVHNAKTKPREEQFNSTFRVVSVLTVVHQDWLNGKEYKCKVSNKGLPAPIEKTISKTKGQPREPQVYTLPPSREEMTKNQVSLTCLVKGFYPSDIAVEWESNGQPENNYKTTPPMLDSDGSFFLYSKLTVDKSRWQQGNVFSCSVMHEALHNHYTQKSLSLSPGK
light: DIQMTQSPSSLSASVGDRVTITCKSSQSLLAWGNQNNYLAWYQQKPGKAPKMLIIWASTRVSGVPSRFSGSGSGTDFTLTISSLQPEDFATYYCQQSYSRPYTFGQGTKVEIKRTVAAPSVFIFPPSDEQLKSGTASVVCLLNNFYPREAKVQWKVDNALQSGNSQESVTEQDSKDSTYSLSSTLTLSKADYEKHKVYACEVTHQGLSSPVTKSFNRGEC
For B1, the “activity of c-Met degradation compared to huAbF46-H4-A1 (IgG2 Fc)” value (c-Met in MKN45 cells) was “approximately equal activity of c-Met degradation” and the “activity of Akt phosphorylation inhibition compared to huAbF46-H4-A1 (IgG2 Fc)” value [1] was “equal or higher activity of Akt phosphorylation inhibition”.
